The nature of the data set: yeast display, Sf9 membrane polyspecificity reagent, FACS + sequencing; frameworks hold sequencing errors. The essentials: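 A synthetic nanobody library was expressed on Saccharomyces cerevisiae BJ5465 by galactose induction for 36–48 hours. The library was stained for 1 hour at 4 °C with 10% biotinylated, detergent-solubilized Sf9 membrane reagent and enriched with streptavidin microbeads before FACS. Low and high (top ~1%) gates were set on anti-HA fluorescence for expression and streptavidin fluorescence for reagent binding, and each polyreactivity label reflects the gate of origin.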
Take “QVQLVESGGGLVQAGGSLRLSCAASGFIFYSYAMGWYRQAPGKERELVAAISTSGGSTYYADSVKGRFTISRDNAKNTVYLQMNSLKPEDTAVYYCNARGTRASRYDYWGQGTQVTVSS”: the “polyreactivity (PSR sort gate)” value is given as “high polyreactivity”.

As for “QVQLVESGGGLVQAGGRLRLSCAASGSTFLVYAMGWYRQAPGKERELVAVIRWRDGSTYYADSVKGRFTISRDNAKNTVYLQMNSLKPEDTAGYYCAAVYWGEEYEYWGQGTQVTVSS”, the “polyreactivity (PSR sort gate)” value is “low polyreactivity”.

Consider “QVQLVESSGGLVQAGGRLRLSCAASGSTFRGNAMGWYRQAPGKERELVAAITGSGGRTYYADSVKGRFTISRDNAKNTVYLQMNSLKPEDTAVYYCAARTPNIGGIYGYWGQGTQVSVSS”, for which the “polyreactivity (PSR sort gate)” value is recorded as “high polyreactivity”.

Consider “QVQLVESGGGLVQAGGSLRLSCAASGRTLQYNAMGWYRQAPGKEMELVAAISSSGGSTYYADSVKGRFTISRDNAKNTVYLQMNSLKPEDTALYYCNAYSQSWNFYGDGDYWGQGTLVTVSS”, for which the “polyreactivity (PSR sort gate)” value was “low polyreactivity”.

On to “QVQLVESGGGLVQAGGSLRLTCAASGRTFSKYAMGWYRQATGKERELVAAITSGGGTYYADSVKGRFTISRDNAKNTVYLQMNSLNPEDTAVYYCAVSVTTVSTYDYWGQGTQVTVSS”, for which the “polyreactivity (PSR sort gate)” value was “low polyreactivity”.

As for “QVQLVESGGGLVQAGGSLRLSCAASGSIFNIYAMGLYRQAPGKERELVATITGIADSTYYADSVKGRFTISRDNAKNTVYLQMNSLKPEDTAVYYCAADKYVAEYDYWGQGTQVTVSS”, the “polyreactivity (PSR sort gate)” value is “low polyreactivity”.

Regarding “QVQLVESGGGLVQAGGSLRLSCAASGRIFIRNTMVWYRQAPGKERELVADISWRGGSTYYADSVKGRFTISRDNAKNTVYLEMNSLKPEDTAVYYSAAVVRSPAYDYWGQGTQVTVSS”, the “polyreactivity (PSR sort gate)” value is recorded as “high polyreactivity”.

Consider “QVQLVESGGGLVQAGGSLRLSSAASGITFDDYAMGWNRQAPGKERELVAAITWSGDSTYYADSVKGRFTISRDNAKNTVYLQMNSLKPEDTAVYYCAAVSYYYSGYIRGYWGQGTQVTVSS”, for which the “polyreactivity (PSR sort gate)” value is on record as “high polyreactivity”.

As to “QVQLVESGGGLVQAGGSLRISCAASGNIFDRYAMGWYRQAPGKEMELVAGITWSGGSTYYADSVKGRFTISRDNAKNTVYLQMNSLKPEDTAVYYCAKDPHGSDFGYWGQGTQVTVSS”, the “polyreactivity (PSR sort gate)” value was “low polyreactivity”.

With “QVQLVESGGGLVQAGGSLRLSCAASGSTIRKYAMGWYRQAPGKERELVAAISARGGSTYYADSVKGRFTISRDNAKNTVYLQMNSLNPEDTAVYYCAADGYRPYSTFDYWGQGTQVTVSS”, the “polyreactivity (PSR sort gate)” value is recorded as “high polyreactivity”.

For “QVQLVESGKGLVQAGGILRLSCAASGLIFGFNAMGWYRQAPGKERELVAAIYGSGGTTYYADSVKGRFTISRDNAKNTVYLQMNSLKPEDTAVYYCAGEYIYNVQFSWPKTPAFDYWGQGTLVTVSS”, the “polyreactivity (PSR sort gate)” value was “low polyreactivity”.

With “QAQLEESGGGLVQAVGSLRLSCAASGRTFTNNDMGWYIQAPGKERELVAAIRWSGGSTYYADSVKGRFTISRDNAKNTVYFQMNSLKPEDTAVYYCAKGYGYVEAVIVQYDYWGQGTQVTVSS”, the “polyreactivity (PSR sort gate)” value is “low polyreactivity”.

“QVQLVESGGGLVQAGGSLRLSCAASGRIFLHYAMGWYRQAPGKERELVAAISRSGGSTYYADSVKGRFTISRDNAKNTVYLQMNSLKPEDTAVYYCAAAYPFKTTEGYFYWGQGTQVTVSS”: the “polyreactivity (PSR sort gate)” value is recorded as “high polyreactivity”.

As for “QVQLVESGGGLVQAGGSLRLSCAASGRIFGYNTMGWYRQAPGNERELVATITGAGSTNYADSVKGLFTISRDNAKNTVYLQMNSLKPEDTAVYYCAASVRWPRVSQRARYGYYYWGQGTQVTVSS”, the “polyreactivity (PSR sort gate)” value is “high polyreactivity”.

As for “QVQLVESGGGLVQAGGSLRLSCAASGNTFRAYAMGWYRQAPGKERELVATITWSGGITDYADSVKGRFTISRDNAKNTVSLQMNSLKPEDTAVYDCAARSYRWWNFNYWGQGTQVTVSS”, the “polyreactivity (PSR sort gate)” value is “high polyreactivity”.

Consider “QVQLVESGGGLVQAGGSLRLSCAASGRTFTTNAMGWYRQAPGKERELVAAITIGDDTYYADSVKGRFTISRDNAKNTVYLQMNSLKPEDTAVYYCNVDGRSDGDDYWGQGTQVTVSS”, for which the “polyreactivity (PSR sort gate)” value is “low polyreactivity”.

As for “QVQLVESGGGLVQAVASLRLSCAASGRIFGPYAMGWDRQAPGKERELVASITRSGGRTYYADSVKGRFTISRDYAKNTVYLQMNSLKPDDTAVYYCAAGGFSKSDYYWGQGTQVTVSS”, the “polyreactivity (PSR sort gate)” value was “high polyreactivity”.

As for “QVQLVESGGGLVQAGGSLRLSCAASGFIFDVYAMGWYRQAPGKERELVAAITSGDGTNYADSVKGRFTISRDNAKNTVYLQMNSLKPEDTAVYYCAADDGVTYRGIIFSYWGQGSQVTVSS”, the “polyreactivity (PSR sort gate)” value is “low polyreactivity”.

In the case of “QVQLVESGGGLVQAGGSLRLSCAASGSTFAASVMGWYRQAPVKERELVAAISTSGGGTYYADSVKGRFTISRDNAKNTVYLQMNSLIPEDTAVYYCAADYGSGSVSYDYWGQGTQVTVSS”, the “polyreactivity (PSR sort gate)” value is recorded as “low polyreactivity”.

On to “HVQLVESGGGLVQAGGSLRLSCAASGRIFASYPMGWYRPAPGNERELVAAISLSGGSTYYADSVKGRFTISRDNAKNTVYLQMNSLKPEDTAVYYCAAKNYRRYRDYYWGQGTQVTVSS”, for which the “polyreactivity (PSR sort gate)” value was “high polyreactivity”.

Regarding “QVQLVESCGGLVQAGGSLRLSCAASRSTFVKYTMGWYRQAPGKERELVATITWSGGSTYYADSVKGRFTISRDNAKNTVYLQLMSLKPEDTAVYYGAIDSGVYRTYQGRWYYYTDFYWGQGTQVTVSS”, the “polyreactivity (PSR sort gate)” value was “low polyreactivity”.

As to “QVQLVESGGGLVQAGGSLRLSCAASGRNFRKYTMGWYRQAPGKERELVATISNSGVSTYYADSVKGRFTISRDYAKNTVYLQMNSLKPEDTAVYYCSKEWLYYNGFFRSYYWGQGTQVNVSS”, the “polyreactivity (PSR sort gate)” value is “high polyreactivity”.

In the case of “QVQLVESGGGLVQAGGSLRLSCAASGLIFGNNAMGWYRQAPGKERELVAAISWSTGGSTYYADSVKGRFTISRDNAKNTVYLQMNSLKPEDTAVYYCAAQYSYGEYWGYDYWGQGTQVTVSS”, the “polyreactivity (PSR sort gate)” value is “low polyreactivity”.

For the sequence “QVQLVESAGGLVQAGGSLRLSCAASGSTLYGYVMGWYRQAPGKERELVAAITWSSGYTYYADSVKGRFTISRDNAKITVYLQMNILKPVDTAVYYCAVRDRSPYGYYYWGQGTQVTVSS”, the “polyreactivity (PSR sort gate)” value is “low polyreactivity”.

With “QVQLVESGGGLVQAGGSLRLSCAASGRIFKAYAMGWSRQAPGKERELVAAITSTGSTYYADSVKGRFTISRDNAKNTVYLQMNSLKPEDTAVYYCNAVRYLEYDWGQGTQVTVSS”, the “polyreactivity (PSR sort gate)” value was “high polyreactivity”.

As for “QVQLVESGGGLVQAGGSLRLSCAASGSIFHRNAMGWYRQAPGKEREFVAAISWRGGSTYYADSVKGRFTISRDNAKNTVYLQMNSLKPEDTAVYYCAADPVGYYWSRRSEFYYWGQGTQVTVSS”, the “polyreactivity (PSR sort gate)” value is listed as “high polyreactivity”.

As to “QVQLVESGGGLVQAGGSLRLSCAASGSIFWGYDMGWYRQAPGKERELVASISYSGGSTSYADSVKGRFTISRDNAKNTVYLQMNSLKPEDTAVYYCAADEGGFWWTYPYDSWGQGTQVTVSS”, the “polyreactivity (PSR sort gate)” value was “low polyreactivity”.

With “QVQLVESGGGLVQAGGSLRLSCAASGLTFVYYTMGWYRQAPGKERELVAGINSGGSTYYADSVKGRFTISRDNAKNTVFLQMNSLKPEDTAVYYCAAVQRGYRRFRRIYDYWGQGTQVTVSS”, the “polyreactivity (PSR sort gate)” value is “high polyreactivity”.

“QVQLVESGGGLVQAGGSLRLSCAASGFTFKDYAMGWYRQAPGKERELVAANSRSGGSTYYADSVKGRFTNSRDSAKNTVYLQMNSLKPEDTAVYYCAAAYVRYRDPYGYWGQGTQVTVSS”: the “polyreactivity (PSR sort gate)” value is on record as “high polyreactivity”.

With “QVQLVESGGGLVQAGGSLRLSCAASGRIFQYNAMGWYRQAPGKERELVAAIRRGGGSTYYADSVKGRFTISRDNAKNTVYLEMNSLKPEDTAVYYCAARRIRVSFYPEYDYWGQGTQVTVSS”, the “polyreactivity (PSR sort gate)” value is “low polyreactivity”.

Consider “QVQLVESGGGLVQAGGILRLSCAASGRTVHNYVMAWYRQAPWNERELVAAITAGVGSTYYADSVKGRFTISRDNAKNTVYFQMNSLKPEDTAVYYCAARKVWGYTYGYPYYYWGQGTQETVSS”, for which the “polyreactivity (PSR sort gate)” value is given as “high polyreactivity”.

For “QVQLVESGGGLVQAGGSLRLSCAASGSIYYRNGMGWYRQAPGKEREFVATITNNGGNTYYADSVKGRFTISRDNAKNTVYLQLNSLKPDDTAVYYCAAGPTWSWGYYYWGQGTQVTVSS”, the “polyreactivity (PSR sort gate)” value was “high polyreactivity”.

As to “QVQLVESGGGLVQAGGSLRLSCAASGFTFRWYTMGWYRQAPGKERELVASIRYGGGSTYYADSVKGRFTISRDNAKNTVYLQMNSLKPEDTAVYYCAAESAWTSQYDYWGVGTQVTVSS”, the “polyreactivity (PSR sort gate)” value was “high polyreactivity”.

Regarding “QVQLVESGGGLVQAGGSLRLSCAASGSIFFGNAMGWYRQAPGKERELVAAISTTGGSTYYADSVKGRFTISRDNEKNTVYLQMNSLKPEDTAVYYCNADRATWWEQWWYDYWGHGTQVTVSS”, the “polyreactivity (PSR sort gate)” value is on record as “low polyreactivity”.

For “QVQLVESGGGLVQAGGSLRLSCAASGNIFYAYDMGWYRQAPGKERELVAAITNGDSTDYADSVKGRFTISRDNAKNTVYLQMNSLKPEDTAVYYCNADYLPEPWALGGSQYDYWGQGTQVTVSS”, the “polyreactivity (PSR sort gate)” value is listed as “low polyreactivity”.

“QVQLVETGGGLVQAGGSLRLSCAGSGSTFTSYVMGWYRQAPGKERELVAAITSSGGDTYYADSVKGRFTISRDNAKNTVYLQMNSLKPEVTAVYYCATRSYYRSSYYRNRYPYDYWGQGTQVTVSS”: the “polyreactivity (PSR sort gate)” value is given as “low polyreactivity”.

As for “QVQLVESGGGLVQAGGRLRLSCAASVGTFRPYAMGWYRQAPGKERELVAAISYTGSTYYADSVKGRFTISRDNAKNTVYLQMNSLKPADTAVYYCAKDFWYPPRFDYWGHGTQVTVSS”, the “polyreactivity (PSR sort gate)” value is given as “low polyreactivity”.

For the sequence “QVQLVESGGGLVQAGGSLRLSCAASGRTFGYNAMGWYSQAPGKETELVAAINWSDASTYYADSVKGRFTISRDNAKNTVSLQMNSLKPEDTAVYYCAADYSYIYGFDYWGQGTLVTVSS”, the “polyreactivity (PSR sort gate)” value is recorded as “low polyreactivity”.

Consider “QVQLVESGGGLVHAGGSLGLSCAASGSIFYEYVMGWYRQAPGKERELVATIDLNGGSTTYADSVKGRFTISRDNAKNTDYLQMNSLKPEDTAVYYCAAQTGFVSHFFWHYDYWGQGSQVTVSS”, for which the “polyreactivity (PSR sort gate)” value was “low polyreactivity”.

For the sequence “QVQLVESGGGLVQAGGSHRLSCAASGFTFWDYAMGWYRKAPGKEREMVAAITSRGTRTYYADSVKGRFTISRDNAKNTVYLQMNSLKPEDTDVYYCATAIPDPDYIHNYWGQGTQVTVSS”, the “polyreactivity (PSR sort gate)” value was “high polyreactivity”.

With “QVQLVESGGGLVQAGGSLRLSCAASGRIFGRYAMGWYRQAPGKERELVAVISARGARTYYADSVKGRFTISRDNAKNTVYLQMNSLKPEDTAVYYCAVDQYATDDYWGQGTQVTVSS”, the “polyreactivity (PSR sort gate)” value is “high polyreactivity”.

The values above are taken from the nanobody polyreactivity screen of Harvey et al. (2022).
